Assay results: patent publication US20250206841A1 (ADEPT THERAPEUTICS, published 2025)

Assays:
[1] = target: T1, rat Trop-2 (rat, UniProt Q6P9Z6 25-270, limits assumed); experiment: ELISA, similar to Table 24
T1 sequence (looked up): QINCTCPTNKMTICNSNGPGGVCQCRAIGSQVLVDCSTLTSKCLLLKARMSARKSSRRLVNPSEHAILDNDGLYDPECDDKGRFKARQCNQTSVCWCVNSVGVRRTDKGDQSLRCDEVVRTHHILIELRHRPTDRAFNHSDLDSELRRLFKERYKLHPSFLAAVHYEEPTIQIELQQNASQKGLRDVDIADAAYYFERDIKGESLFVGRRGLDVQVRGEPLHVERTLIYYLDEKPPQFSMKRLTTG

[2] = target: T2, human Trop-2 expressed on cell surface (human, UniProt P09758 27-323); experiment: cell-based or functional assay
T2 sequence (looked up): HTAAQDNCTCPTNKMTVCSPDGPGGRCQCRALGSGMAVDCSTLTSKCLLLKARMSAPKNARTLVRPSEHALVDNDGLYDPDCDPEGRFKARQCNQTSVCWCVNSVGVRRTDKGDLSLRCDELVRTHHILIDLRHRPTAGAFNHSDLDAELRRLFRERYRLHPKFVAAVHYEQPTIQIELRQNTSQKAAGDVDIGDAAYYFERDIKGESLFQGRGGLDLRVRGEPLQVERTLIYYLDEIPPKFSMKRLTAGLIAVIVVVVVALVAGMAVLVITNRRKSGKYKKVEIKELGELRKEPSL

[3] = target: T2, human Trop-2 expressed on cell surface; experiment: cell-based or functional assay; remark: listed apart in the source
[4] = target: T2, human Trop-2 expressed on cell surface; experiment: flow cytometry, MDA-MB-231-GFP cells
Procedure, shortened: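 Cells at 10⁶/ml in DPBS/1% FBS were incubated on ice for 1 h with antibodies in 1:3 serial dilutions from 15 μg/mL. Detection used PE anti-human Fc (1:400, 30 min on ice) with 7-AAD viability staining, read by flow cytometry. EC₅₀ from binding curves; anti-HEL hIgG1 isotype control.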

[5] = target: T2, human Trop-2 expressed on cell surface; experiment: cell-based or functional assay; remark: listed apart in the source
[6] = target: T3, human Trop-2-His protein (human, UniProt P09758 27-274); experiment: BLI (Gator Plus), purified Ab on HFC probe
T3 construct: extracellular domain; Assay paragraphs say only 'Trop-2-His'; also called hTrop-2; Kactus Cat #TRP-HM121; not shown: His tag
T3 sequence (looked up): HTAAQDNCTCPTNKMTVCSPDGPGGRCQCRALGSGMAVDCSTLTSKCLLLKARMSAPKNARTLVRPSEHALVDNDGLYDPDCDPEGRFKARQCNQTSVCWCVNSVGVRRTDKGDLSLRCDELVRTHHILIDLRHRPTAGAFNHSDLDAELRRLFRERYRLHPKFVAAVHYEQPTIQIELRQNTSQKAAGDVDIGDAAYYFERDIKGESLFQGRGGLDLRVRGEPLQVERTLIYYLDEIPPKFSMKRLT
Procedure, shortened: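 Antibody at 1 μg/ml in Q buffer captured on HFC biosensor; human Trop-2-His analyte in 1:4 serial dilutions from 1 μg/ml. Association and dissociation tracked by bio-layer interferometry with blank reference subtraction; affinity derived from kinetic fitting.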

Binder	binding result [1]	Internalization %, MDA-MB-231, 0.25 µg/ml, 2 h [2]	Internalization %, MDA-MB-231, 0.25 µg/ml, 4 h [2]	Internalization %, MDA-MB-231, 0.5 µg/ml, 2 h [2]	Internalization %, MDA-MB-231, 0.5 µg/ml, 4 h [2]	Internalization %, MDA-MB-231, 1 µg/ml, 2 h [2]	Internalization %, MDA-MB-231, 1 µg/ml, 4 h [2]	Internalization %, MDA-MB-231, 2 µg/ml, 2 h [2]	Internalization %, MDA-MB-231, 2 µg/ml, 4 h [2]	EC50 of ADCC (NFAT-CD16 reporter), MCF-7 [3]	EC50 of ADCC (NFAT-CD16 reporter), MDA-MB-231 [3]	EC50 [4]	Internalization %, MCF-7, 0.25 µg/ml, 1 h [5]	Internalization %, MCF-7, 0.25 µg/ml, 2 h [5]	Internalization %, MCF-7, 0.25 µg/ml, 4 h [5]	Internalization %, MCF-7, 0.5 µg/ml, 1 h [5]	Internalization %, MCF-7, 0.5 µg/ml, 2 h [5]	Internalization %, MCF-7, 0.5 µg/ml, 4 h [5]	Kd [6]	koff [6]	other results
63H3 (antibody, V domains shown, Rabbit-derived clone; LEM construct: VH + rabbit IgG CH1 + human IgG1 CH2-CH3) VH: QEQLKESGGGLVQPGGSLKLSCKASGFDFNSYGVSWVRQAPGKGLEWIAYIYPAFHNAYYANWVNGRFTISSDNAQNTVDLQLNSLTAADTATYFCARDAGGTDYNYNLWGPGTLVTVSS VL: DVVMTQTPASVEVAVGGTVTLKCQASEDIESYSAWYQQKPGQPPNLLIYEASKLASGVSSRFSGSGYGTEFTLTISGVECADAATYYCQQALTIGNVDNPFGGGSEVVVR	no binding	40%	48%	39%	45%	38%	49%	37%	39%	0.17 nM	0.03 nM	0.02 nM	15%	26%	36%	23%	37%	44%	0.03 nM	2.5e-05 s⁻¹	kon [6]: 766000 M⁻¹ s⁻¹
65D5 (antibody, V domains shown, Rabbit-derived clone; LEM construct: VH + rabbit IgG CH1 + human IgG1 CH2-CH3) VH: QEQLKESGGGLVQPGGSLKLSCKASGFDFNAYGVSWVRQAPGKGLEWIAYIYPAFHNTYYATWVNGRFTISSHNAQNTLYLQLNTLTAADTATYFCARDAGTTDYNFNLWGPGTLVTVSS VL: DIVMTQTPASVSEPVGGTVTIKCQASQSISSYLAWYQQKPGQPPKLLIYEATKLTSGVSSRFSGSGYGTEFTLTISGVECADAATYYCQQALTVGDVDNPFGGGSEVVVK	no binding	34%	51%	43%	51%	37%	48%	31%	41%	0.32 nM	0.05 nM	0.01 nM	18%	36%	41%	23%	41%	42%	1.1 nM	0.000898 s⁻¹	kon [6]: 819000 M⁻¹ s⁻¹
66A1 (antibody, V domains shown, Rabbit-derived clone; LEM construct: VH + rabbit IgG CH1 + human IgG1 CH2-CH3) VH: QEQLKESGGGLVQPGGSLKLSCKASGFDFNNYGVSWVRQAPGKGLEWIAYIYPAFHNTYYASWVNGRFTISSHNAQNTLYLQLNSLTAADTATYFCARDAGGTDYAYNLWGPGTLVTVSS VL: DVVMTQTPASVEAAVGGTVSINCQASEDIESYLAWYQQKPGQPPKLLIYKASTLASGVSSRFKGSGSGKQFTLTISGVECADAATYYCQQVLTIGNVDNPFGGGSEVVVK	no binding	45%	51%	46%	50%	39%	49%	36%	43%	0.22 nM	0.06 nM	0.01 nM	20%	36%	45%	33%	45%	53%	0.25 nM	0.000193 s⁻¹	kon [6]: 788000 M⁻¹ s⁻¹
